Substrate in data set [1]: Nc1ccccc1C(=O)C[C@H](N)C(=O)O
As to the kind of experiment: purified protein. As to conditions: 0-2 mM substrate, 0.10-1.00 uM enzyme. Format: biochemical, Homo sapiens.

Substrate in data set [2]: Nc1c(O)cccc1C(=O)CC(N)C(=O)O
In words: purified protein. As to conditions: HsKYNase_66; racemic substrate; in D2O-PBS (H2O value only in Figure 1f).

Substitutions are numbered along the chain they refer to. Numbers in names are those of the source.

We go through five proteins from publication PMC9717613.

Broadly, the Km is the concentration of substrate that gives half-maximal velocity. One may read the kcat as the number of substrate molecules converted per active site and unit of time at saturation. A word on the kcat/Km: it is the turnover number divided by the Michaelis constant.

B1: HsKYNase (human kynureninase) (Homo sapiens) (protein)
chain: MEPSSLELPADTVQRIAAELKCHPTDERVALHLDEEDKLRHFRECFYIPKIQDLPPVDLSLVNKDENAIYFLGNSLGLQPKMVKTYLEEELDKWAKIAAYGHEVGKRPWITGDESIVGLMKDIVGANEKEIALMNALTVNLHLLMLSFFKPTPKRYKILLEAKAFPSDHYAIESQLQLHGLNIEESMRMIKPREGEETLRIEDILEVIEKEGDSIAVILFSGVHFYTGQHFNIPAITKAGQAKGCYVGFDLAHAVGNVELYLHDWGVDFACWCSYKYLNAGAGGIAGAFIHEKHAHTIKPALVGWFGHELSTRFKMDNKLQLIPGVCGFRISNPPILLVCSLHASLEIFKQATMKALRKKSVLLTGYLEYLIKHNYGKDKAATKKPVVNIITPSHVEERGCQLTITFSVPNKDVFQELEKRGVVCDKRNPNGIRVAPVPLYNSFHDVYKFTNLLTSILDSAETKN
With B1, in “purified protein [1]”, the Km was determined as 1570 µM, the kcat stood at 0.18 s⁻¹ and the specificity constant (kcat/Km) is 110 M⁻¹ s⁻¹.

B2: HsKYNase (human kynureninase) (Homo sapiens; E103Q/F225Y/I331V/I405L/L72N/M189I/N67D/S274G/S408N) (protein)
chain: B1 chain with N67D, L72N, E103Q, M189I, F225Y, S274G, I331V, I405L, S408N
Consider B2, for which, in the data set “purified protein [1]” (HsKYNase_46), the Km was determined as 190 µM, the catalytic constant (kcat) is 0.58 s⁻¹ and the kcat/Km turned out to be 3100 M⁻¹ s⁻¹.

B3: HsKYNase (human kynureninase) (Homo sapiens; … (protein)
chain: MEPSSLELPADTVQRIAAELKCHPTDERVALHLDEEDKLRHFRECFYIPKIQDLPPVDLSLVNKDEDAIYFNGNSLGLQPKMVKTYLEEELDKWAKIAIYGWFEGDSPWIHYDESIVGLMKDIVGANEKEIVLMNTLTVNLHLLMLSFFKPTPKRYKILLEAKAFPSDHYAIESQLQLHGLNIEESMRIIKPREGEETLRIEDILEVIEKEGDSIAVILFSGIHYYTGQHFNIPAITKAGQAKGCYVGFDLAHAVGNVELYLHDWGVDFACWCGYKYLNSSPGGIAGAFIHEKHAHTIKPALVGWFGHELSTRFKMDNKLQLIPGVCGFRCSTPPILLVCILHASLEIFKQATMKALRKKSVLLTGYLEYLIKHNYGKDKAATKKPVVNIITPSHVEERGCQLTLTFNVPNKDVFQELEKRGVVCDKRNPNGIRVAPVPLYNSFHDVYKFTNLLTSILDSAETKN
Turning to B3, in the data set “purified protein [1]” (HsKYNase_66), the Km came out at 27 µM, the kcat was 1.54 s⁻¹ and the kcat/Km was 56000 M⁻¹ s⁻¹. Besides, in the data set “purified protein [2]”, the Km was determined as 1370 ± 200 µM.

B4: HsKYNase (human kynureninase) (Homo sapiens; A136T/A99I/E103F/F225Y/H102W/I110M/I331C/I405L/K106E/L72N/M189I/N333T/N67D/R107S/S274G/S341I/S408N/V104E) (protein)
chain: B3 chain with D106E, I110M, H111T, Y112G, V132A, I223V, S280A, S281G, P282A
Turning to B4, in the data set “purified protein [1]” (HsKYNase_64), the Km came to 36 µM, the kcat was found to be 0.24 s⁻¹ and the kcat/Km was found to be 6700 M⁻¹ s⁻¹.

B5: HsKYNase (human kynureninase) (Homo sapiens; … (protein)
chain: B3 chain with A68T, I110L, V132A, I223V, G274N, F306W
As to B5, in the data set “purified protein [1]” (HsKYNase_95), the Km came to 16 µM, the kcat is 0.85 s⁻¹ and the kcat/Km stood at 55000 M⁻¹ s⁻¹.
